Assays:
NAFLD mice = test: Therapeutic administration for 14 days in mice with established NAFLD; assay type: in vivo, mouse
Procedure: (§1) Therapeutic ISM1 recombinant protein administration in vivo. All pharmacologic studies using recombinant ISM1 protein were performed in mice with established diet-induced obesity or non-alcoholic fatty liver disease (NAFLD). For all experiments, male C57BL/6J mice purchased from Jax were fed either a high-fat diet (#D12492, Research Diets) or a NAFLD diet (#D09100310, Research Diets) prior to ISM1 protein injections. In all experiments, mice were mock injected with saline for three days prior to protein or drug injections to prevent stress-induced weight loss. Mice were I.P. injected with vehicle (saline) or indicated doses of ISM1 protein diluted in saline. For the 14-day experiments in NAFLD mice, 7-weeks old mice were fed with NAFLD diet for 3 weeks and then mock injected with saline for 3 days prior to protein injections. The induction of lipid accumulation with NAFLD diet was verified by the significant increase in hepatic lipid levels compared with mice on chow diet at the same time point. NAFLD mice were then daily I.P. injected with either vehicle (saline containing 5% DMSO and 10% Kolliphor) or indicated doses of ISM1 protein (500 μg/kg or 5 mg/kg) or with FXR agonist (30 mg/kg, GW4064, Sigma-Aldrich, #G5172) diluted in vehicle (saline containing 5% DMSO and 10% Kolliphor). For the 21-day experiments in HFD mice, mice were mock injected with saline for three days prior to protein injections. Mice were then daily I.P. injected with either vehicle (saline) or 5 mg/kg of ISM1 protein diluted in saline. Metformin (100 mg/kg, Sigma, #317240) was diluted in saline and daily administered by oral gavage. All groups received control injections by I.P. and oral gavage. At the end of the experiments, mice and tissue weights were recorded. Tissues and plasma were collected and frozen for further analyses.
Immunohistochemistry. For H&E staining, livers were formalin-fixed, paraffin-embedded, and sectioned at 6 μm. For hematoxylin and eosin (H&E) staining, sections were deparaffinized and […] with xylenes and ethanol. Briefly, slides were stained with hematoxylin, washed with water and 95% ethanol, and stained with eosin for 30 min. Sections were then incubated with ethanol and xylene, and mounted with mounting medium. For Oil red O stainings, frozen liver tissue slides were fixed with 3% formalin in PBS, washed twice with water, incubated with 60% isopropanol for 5 min and then incubated with Oil Red O solution (3:2 ratio of Oil Red O:H2O) for 20 min. […] Digital images were captured with a Nikon Digital Sight DS-Fi1 color camera and NIS-Elements acquisition software.

[1] = tested on: IGF-I-Receptor β Tyr1135/1136 or Insulin receptor Tyr1150/1151; test: Western blot of phosphorylated insulin and IGF receptors in 3T3-F442A cells; assay type: cell-based; conditions: 100 nM; 2 minutes
Procedure: (§2) Western blots and molecular analyses. For western blotting, homogenized tissues or whole-cell lysates, samples were lysed in RIPA buffer containing protease inhibitor cocktail (Roche) and phosphatase inhibitor cocktail (Roche). Cell lysates were centrifuged at 14,000×g for 15 min and supernatants were prepared in 4×LDS Sample Buffer (Invitrogen) and separated by SDS-PAGE and transferred to Immobilon 0.45 μm membranes (Millipore). For Western blotting of plasma samples, 1 μl of plasma was prepared in 2× sample buffer (Invitrogen) with reducing agent, boiled, and analyzed using Western blot against indicated antibody. Protein kinase array (R&D systems ARY003B) was performed according to the manufacturers' description. All antibodies used in this paper are described in STAR methods.

pTyr = test: Western blot of pTyr levels; assay type: cell-based; conditions: 100 nM; 2 minutes
Procedure: as §2

pAKTS473 = test: In vivo pAKT S473 signaling in tissues after I.V. injection in DIO mice; set-up: species or system mouse
Procedure: as §2

[2] = tested on: human primary skeletal muscle cells; test: 2-deoxy-3H-glucose uptake in human primary skeletal muscle cells; assay type: cell-based; conditions: for induction of glucose uptake compared with control cells: 1 h
AML12 hepatocytes [3] = test: Lipogenesis assay (3H-acetate incorporation into lipids) in AML12 hepatocytes; assay type: cell-based, mouse; conditions: 24 h
Procedure: Lipogenesis Assay. Primary hepatocytes or AML12 hepatocytes were washed twice with warm PBS and starved in serum-free DMEM overnight. Indicated concentrations of insulin with or without ISM1 were added at the same time. After 24 h, a mixture of 10 μM cold acetate and 2 μCi [3H]-Acetate (#NET003H005MC, PerkinElmer) was added to each well and cells were incubated for another 4 hr. Cells were washed with PBS twice and lysed using 0.1 N hydrogen chloride. Lipids were extracted by 2:1 chloroform-methanol (v/v). After centrifugation at 3000×g for 10 min, the lower phase was transferred to scintillation vials and radioactivity was measured by liquid scintillation counting.

AML12 hepatocytes [4] = test: Protein synthesis assay (3H-leucine incorporation into proteins) in AML12 hepatocytes; assay type: cell-based, mouse; conditions: 24 h
Procedure: Protein synthesis Assay. AML12 hepatocytes were washed twice with warm PBS and starved in serum-free media overnight. Indicated concentrations of insulin with or without ISM1 and 0.25 uCi of [3H]-Leucine (#NET460250UC, PerkinElmer) were added at the same time. After a 24 h incubation, cells were washed three times with ice cold PBS and lysed in RIPA buffer containing protease inhibitor cocktail (Roche). After 15 min centrifugation at 14000×g, supernatants were transferred to new tubes. Trichloroacetic acid was added to the protein extracts at a final concentration of 10% and incubated on ice for 1 h. After a 15 min centrifugation at 14000×g, pellets were washed with cold acetone, diluted in 10M NaOH and transferred to scintillation vials. The radioactivity was measured by liquid scintillation counting.

DIO mice = test: Therapeutic ISM1, Metformin or combined administration for 21 days in DIO mice; assay type: in vivo, mouse; conditions: daily for 21 days; compared with vehicle
Procedure: as §1
Glucose tolerance and insulin tolerance tests. For glucose tolerance tests, mice were fasted overnight and I.P. injected with glucose at 2 g/kg body weight. Blood glucose levels were measured at 0, 15, 30, 45, 60, 90 and 120 mins. For insulin tolerance tests, mice were fasted for 2 h, and I.P. injected with 0.75 U/kg insulin. Blood glucose levels were measured at 0, 15, 30, 45, 60, 90 and 120 mins.

pAKT^S473 = test: pAKT S473 western blot in human SGBS adipocytes and human primary skeletal muscle cells; assay type: cell-based
Procedure: as §2

[5] = 0.5 mg/kg daily for 14 days, vs vehicle-treated NAFLD mice
[6] = 5 mg/kg ISM1 vs 30 mg/kg GW4064, 14 days
[7] = 5 mg/kg daily for 14 days, vs vehicle-treated NAFLD mice

B1: ISM1: recombinant mouse ISM1 protein with a C-terminal myc-his tag generated in mammalian HEK 293 Expi cells (protein, UniProt A2ATD1 30-454, looked up)
Isthmin-1: SDRQDAAAGNNNLNLESDSTSETSFPLSKEAPEEHQVVHQPFPRQRFPPETGHPSLQRDGPRSFLLDLPNFPDLSKADINGQNPNIQVTIEVVDGPDSEAEKDQHPENKPSWSLPAPDWRAWWQRSLSLARTNSGDQDDKYDSTSDDSNFLSVPRGWDRPAPGHRTFETKEQPEYDSTDGEGDWSLWSVCSVTCGNGNQKRTRSCGYACIATESRTCDRPNCPGIEDTFRTAATEVSLLAGSEEFNATKLFEVDMDSCERWMSCKSEFLKKYMHKVINDLPSCPCSYPTEVAYSTADIFDRIKRKDFRWKDASGPKEKLEIYKPTARYCIRSMLSLESTTLAAQHCCYGDNMQLITRGKGAGTPNLISTEFSAELHYKVDVLPWIICKGDWSRYNEARPPNNGQKCTESPSDEDYIKQFQEAREY
modifications: C-terminal myc-His tag
notes: recombinant mouse ISM1 protein with a C-terminal myc-his tag generated in mammalian HEK 293 Expi cells
fed blood glucose reduced (NAFLD mice; [5]): not
liver weights reduced (NAFLD mice; [5]): not
effect on liver weights, blood glucose and histological signs of steatosis compared with benchmark (NAFLD mice; [6]): as potent as the FXR agonist GW4064 treatment
reversal of hepatic steatosis compared with benchmark (NAFLD mice; [6]): performs equal to the FXR agonist GW4064
fed blood glucose (NAFLD mice; [7]): reduced
liver weights (NAFLD mice; [7]): reduced liver weights
hepatic Fatty Acid Synthase (FAS) protein levels (NAFLD mice; 5 mg/kg, 14 days): reduced hepatic Fatty Acid Synthase (FAS) protein levels
liver Oil red O staining (NAFLD mice; 5 mg/kg, 14 days): reduced Oil red O staining
gross liver morphology (NAFLD mice; 5 mg/kg, 14 days, vs vehicle treated NAFLD mice): obvious gross morphological changes in liver size and color
IGF-R/IR phosphorylation [1]: no phosphorylation
tyrosine phosphorylation of proteins (pTyr): induces phosphorylation of tyrosine residues on proteins >100 kDa in size
pAKTS473 signaling in BAT and liver (pAKTS473; 10 mg/kg I.V., 10 min time point): transient inductions
pAKTS473 signaling in iWAT and skeletal muscle (pAKTS473; 10 mg/kg I.V., DIO mice): activates pAKTS473 signaling at 30 and 60 min
dose inducing the highest pAKTS473 response (pAKTS473; doses ranging from 0.1 mg/kg to 10 mg/kg, iWAT): 5 mg/kg
induction of glucose uptake compared with control cells ([2]; 50 nM): 5 fold
induction of glucose uptake compared with control cells ([2]; 200 nM): 7 fold
effect on glucose uptake relative to that of insulin ([2]; human skeletal muscle cells): 70%
lipogenesis at supraphysiological insulin (AML12 hepatocytes [3]; 50 nM ISM1 in presence of 200 nM insulin): sufficient to reduce lipogenesis
insulin-induced lipogenesis (AML12 hepatocytes [3]; 50 and 100 nM ISM1 with 50 nM insulin): reverse the insulin-induced lipogenesis dose-dependently
lipid synthesis versus protein synthesis, side-by-side (AML12 hepatocytes [4]; 100 nM ISM1 and 50 nM insulin vs 50 nM insulin alone): suppresses lipid synthesis in favor of protein synthesis
induction of protein synthesis (H3-leucine incorporation) (AML12 hepatocytes [4]; combined chronic ISM1 and insulin (50 nM) treatment): 2.9 fold
fasting blood glucose (DIO mice): lower
glucose tolerance (GTT) (DIO mice): comparable effects on improving glucose tolerance
pAKT^S473 induction (pAKT^S473; human SGBS adipocytes): induced pAKT^S473
pAKT^S473 induction (pAKT^S473; human primary skeletal muscle cells (HSMC), 100 nM, 5 min): induced pAKT^S473
